B1: G-patch domain and KOW motifs-containing protein (Homo sapiens), Q92917 (parent)
chain: MADSKEGVLPLTAASTAPISFGFTRTSARRRLADSGDGAGPSPEEKDFLKTVEGRELQSVKPQEAPKELVIPLIQNGHRRQPPARPPGPSTDTGALADGVVSQAVKELIAESKKSLEERENAGVDPTLAIPMIQKGCTPSGEGADSEPRAETVPEEANYEAVPVEAYGLAMLRGMGWKPGEGIGRTFNQVVKPRVNSLRPKGLGLGANLTEAQALTPTGPSRMPRPDEEQEKDKEDQPQGLVPGGAVVVLSGPHRGLYGKVEGLDPDNVRAMVRLAVGSRVVTVSEYYLRPVSQQEFDKNTLDLRQQNGTASSRKTLWNQELYIQQDNSERKRKHLPDRQDGPAAKSEKAAPRSQHWLHRDLRVRFVDNMYKGGQYYNTKMIIEDVLSPDTCVCRTDEGRVLEGLREDMLETLVPKAEGDRVMVVLGPQTGRVGHLLSRDRARSRALVQLPRENQVVELHYDAICQYMGPSDTDDD
B2: Protein DDI1 homolog 1 (Homo sapiens), Q8WTU0 (parent)
chain: MLITVYCVRRDLSEVTFSLQVSPDFELRNFKVLCEAESRVPVEEIQIIHMERLLIEDHCSLGSYGLKDGDIVVLLQKDNVGPRAPGRAPNQPRVDFSGIAVPGTSSSRPQHPGQQQQRTPAAQRSQGLASGEKVAGLQGLGSPALIRSMLLSNPHDLSLLKERNPPLAEALLSGSLETFSQVLMEQQREKALREQERLRLYTADPLDREAQAKIEEEIRQQNIEENMNIAIEEAPESFGQVTMLYINCKVNGHPLKAFVDSGAQMTIMSQACAERCNIMRLVDRRWAGVAKGVGTQRIIGRVHLAQIQIEGDFLQCSFSILEDQPMDMLLGLDMLRRHQCSIDLKKNVLVIGTTGTQTYFLPEGELPLCSRMVSGQDESSDKEITHSVMDSGRKEH
partner: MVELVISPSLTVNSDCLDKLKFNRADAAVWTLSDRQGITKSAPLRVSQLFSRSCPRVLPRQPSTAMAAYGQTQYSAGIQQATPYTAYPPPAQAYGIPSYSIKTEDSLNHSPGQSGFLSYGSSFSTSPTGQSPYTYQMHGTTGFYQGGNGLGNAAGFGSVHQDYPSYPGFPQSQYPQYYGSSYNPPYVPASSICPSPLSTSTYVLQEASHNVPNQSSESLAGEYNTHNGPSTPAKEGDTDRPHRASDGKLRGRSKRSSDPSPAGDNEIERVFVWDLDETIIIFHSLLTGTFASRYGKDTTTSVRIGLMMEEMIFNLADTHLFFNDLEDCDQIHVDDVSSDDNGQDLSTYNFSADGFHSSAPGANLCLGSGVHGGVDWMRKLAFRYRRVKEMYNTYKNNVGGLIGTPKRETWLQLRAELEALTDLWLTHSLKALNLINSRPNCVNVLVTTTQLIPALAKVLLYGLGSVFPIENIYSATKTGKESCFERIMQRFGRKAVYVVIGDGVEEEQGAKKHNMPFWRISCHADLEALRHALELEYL

In one experiment the parent is B1. The conditions noted are these: with tri23_human TRIM23, P36406.
tri23_human TRIM23, P36406, sequence (P36406 whole entry): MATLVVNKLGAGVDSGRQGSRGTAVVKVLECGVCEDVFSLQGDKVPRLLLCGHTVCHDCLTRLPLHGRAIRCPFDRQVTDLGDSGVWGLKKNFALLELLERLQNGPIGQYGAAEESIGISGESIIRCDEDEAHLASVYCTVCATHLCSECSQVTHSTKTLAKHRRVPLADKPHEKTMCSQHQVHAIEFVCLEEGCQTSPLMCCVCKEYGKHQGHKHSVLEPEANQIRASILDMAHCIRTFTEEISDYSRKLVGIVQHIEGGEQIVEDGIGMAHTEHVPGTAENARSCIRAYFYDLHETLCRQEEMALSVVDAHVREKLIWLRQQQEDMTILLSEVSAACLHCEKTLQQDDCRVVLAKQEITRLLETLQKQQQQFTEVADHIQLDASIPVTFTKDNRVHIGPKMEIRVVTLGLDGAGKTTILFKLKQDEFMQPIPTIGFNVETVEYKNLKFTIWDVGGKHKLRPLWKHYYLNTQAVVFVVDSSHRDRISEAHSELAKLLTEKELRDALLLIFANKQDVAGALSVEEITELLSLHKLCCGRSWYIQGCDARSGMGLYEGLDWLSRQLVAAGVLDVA
In the case of MADSKEGVLPLTAASTAPISFGFTRTSARRRLADSGDGAGPSPEEKDFLKTVEGRELQSVKPQEAPKELVIPLIQNGHRRQPPARPPGPSTDTGALADGVVSQAVKELIAESKKSLEERENAGVDPTLTIPMIQKGCTPSGEGADSEPRAETVPEEANYEAVPVEAYGLAMLRGMGWKPGEGIGRTFNQVVKPRVNSLRPKGLGLGANLTEAQALTPTGPSRMPRPDEEQEKDKEDQPQGLVPGGAVVVLSGPHRGLYGKVEGLDPDNVRAMVRLAVGSRVVTVSEYYLRPVSQQEFDKNTLDLRQQNGTASSRKTLWNQELYIQQDNSERKRKHLPDRQDGPAAKSEKAAPRSQHWLHRDLRVRFVDNMYKGGQYYNTKMIIEDVLSPDTCVCRTDEGRVLEGLREDMLETLVPKAEGDRVMVVLGPQTGRVGHLLSRDRARSRALVQLPRENQVVELHYDAICQYMGPSDTDDD [A129T], the “effect of a mutation on the interaction” value is listed as “with no effect”.

As to MADSKEGVLPLTAASTAPISFGFTRTSARRRLADSGDGAGPSPEEKDFLKTVEGRELQSVKPQEAPKELVIPLIQNGHRRQPPARPPGPSTDTGALADGVVSQAVKELIAESKKSLEERENAGVDPTLAIPMIQKGCTPSGEGADSEPRAETVPEEANYEAVPVEAYGLAMLRGMGWKPGEGIGRTFNQVVKPRVNSLRPKGLGLGANLTEAQALTPTGPSRMPRPDEEQEKDKEDQPQGLVPGGAVVVLSGPHRGLYGKVEGLDPDNVRAMVRLAVGSRVVTVSEYYLRPVSQQEFDKNTLDLRQQNGTASSRKTLWNQELYIQQDNSERKRKHLPDRQDGPAAKSEKAAPRSQHWLHRDLRVRFVDNMYKGGQYYNTKMIIEDVLSPDTCACRTDEGRVLEGLREDMLETLVPKAEGDRVMVVLGPQTGRVGHLLSRDRARSRALVQLPRENQVVELHYDAICQYMGPSDTDDD [V393A], the “effect of a mutation on the interaction” value was “with no effect”.

The variants in a further experiment derive from B1. The following applies: with traf2_human TRAF2, Q12933.
traf2_human TRAF2, Q12933, sequence (Q12933 whole entry): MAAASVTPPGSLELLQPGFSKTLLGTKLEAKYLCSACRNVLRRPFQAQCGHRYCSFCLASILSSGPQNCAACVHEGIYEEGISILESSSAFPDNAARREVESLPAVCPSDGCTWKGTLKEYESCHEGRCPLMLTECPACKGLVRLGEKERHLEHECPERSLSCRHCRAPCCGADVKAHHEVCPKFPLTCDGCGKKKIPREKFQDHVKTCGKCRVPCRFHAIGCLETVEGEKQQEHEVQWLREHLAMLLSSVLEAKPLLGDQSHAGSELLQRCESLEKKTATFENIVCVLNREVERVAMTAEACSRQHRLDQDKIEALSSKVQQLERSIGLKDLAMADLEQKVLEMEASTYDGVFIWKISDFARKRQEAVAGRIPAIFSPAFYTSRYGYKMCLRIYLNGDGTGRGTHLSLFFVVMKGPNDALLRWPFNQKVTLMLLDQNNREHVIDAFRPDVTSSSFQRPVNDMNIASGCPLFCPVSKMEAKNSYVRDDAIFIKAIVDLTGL
For the variant MADSKEGVLPLTAASTAPISFGFTRTSARRRLADSGDGAGPSPEEKDFLKTVEGRELQSVKPQEAPKELVIPLIQNGHRRQPPARPPGPSTDTGALADGVVSQAVKELIAESKKSLEERENAGVDPTLTIPMIQKGCTPSGEGADSEPRAETVPEEANYEAVPVEAYGLAMLRGMGWKPGEGIGRTFNQVVKPRVNSLRPKGLGLGANLTEAQALTPTGPSRMPRPDEEQEKDKEDQPQGLVPGGAVVVLSGPHRGLYGKVEGLDPDNVRAMVRLAVGSRVVTVSEYYLRPVSQQEFDKNTLDLRQQNGTASSRKTLWNQELYIQQDNSERKRKHLPDRQDGPAAKSEKAAPRSQHWLHRDLRVRFVDNMYKGGQYYNTKMIIEDVLSPDTCVCRTDEGRVLEGLREDMLETLVPKAEGDRVMVVLGPQTGRVGHLLSRDRARSRALVQLPRENQVVELHYDAICQYMGPSDTDDD [A129T], the “effect of a mutation on the interaction” value was “with no effect”.

For MADSKEGVLPLTAASTAPISFGFTRTSARRRLADSGDGAGPSPEEKDFLKTVEGRELQSVKPQEAPKELVIPLIQNGHRRQPPARPPGPSTDTGALADGVVSQAVKELIAESKKSLEERENAGVDPTLAIPMIQKGCTPSGEGADSEPRAETVPEEANYEAVPVEAYGLAMLRGMGWKPGEGIGRTFNQVVKPRVNSLRPKGLGLGANLTEAQALTPTGPSRMPRPDEEQEKDKEDQPQGLVPGGAVVVLSGPHRGLYGKVEGLDPDNVRAMVRLAVGSRVVTVSEYYLRPVSQQEFDKNTLDLRQQNGTASSRKTLWNQELYIQQDNSERKRKHLPDRQDGPAAKSEKAAPRSQHWLHRDLRVRFVDNMYKGGQYYNTKMIIEDVLSPDTCACRTDEGRVLEGLREDMLETLVPKAEGDRVMVVLGPQTGRVGHLLSRDRARSRALVQLPRENQVVELHYDAICQYMGPSDTDDD [V393A], the “effect of a mutation on the interaction” value is on record as “with no effect”.

A further experiment covers variants of B2. The conditions noted are these: with eya2_human EYA2, O00167.
As to MLITVYCVRRDLSEVTFSLQVSPDFELRNFKVLCEAESRVPVEEIQIIHMERLLIEDHCSLGSYGLKDGDIVVLLQKDNVGPRAPGRAPNQPRVDFSGIAVPGTSSSRPQHPGQQQQRTPAAQRSQGLASGEKVAGLQGLGSPALIRSMLLSNPHDLSLLKERNPPLAEALLSGSLETFSQVLMEQQREKALREQERLRLYTADPLDGEAQAKIEEEIRQQNIEENMNIAIEEAPESFGQVTMLYINCKVNGHPLKAFVDSGAQMTIMSQACAERCNIMRLVDRRWAGVAKGVGTQRIIGRVHLAQIQIEGDFLQCSFSILEDQPMDMLLGLDMLRRHQCSIDLKKNVLVIGTTGTQTYFLPEGELPLCSRMVSGQDESSDKEITHSVMDSGRKEH [R208G], the “effect of a mutation on the interaction” value is “with no effect”.

On to MLITVYCVRRDLSEVTFSLQVSPDFELRNFKVLCEAESRVPVEEIQIIHMERLLIEDHCSLGSYGLKDGDIVVLLQKDNVGPRAPGRAPNQPRVDFSGIAVPGTSSSRPQHPGQQQQRTPAAQRSQGLASGEKVASLQGLGSPALIRSMLLSNPHDLSLLKERNPPLAEALLSGSLETFSQVLMEQQREKALREQERLRLYTADPLDREAQAKIEEEIRQQNIEENMNIAIEEAPESFGQVTMLYINCKVNGHPLKAFVDSGAQMTIMSQACAERCNIMRLVDRRWAGVAKGVGTQRIIGRVHLAQIQIEGDFLQCSFSILEDQPMDMLLGLDMLRRHQCSIDLKKNVLVIGTTGTQTYFLPEGELPLCSRMVSGQDESSDKEITHSVMDSGRKEH [G136S], for which the “effect of a mutation on the interaction” value was “with no effect”.

MLITVYCVRRDLSEVTFSLQVSPDFELRNFKVLCEAESRVPVEEIQIIHMERLLIEDHCSLGSYGLKDGDIVVLLQKDNVGPRAPGCAPNQPRVDFSGIAVPGTSSSRPQHPGQQQQRTPAAQRSQGLASGEKVAGLQGLGSPALIRSMLLSNPHDLSLLKERNPPLAEALLSGSLETFSQVLMEQQREKALREQERLRLYTADPLDREAQAKIEEEIRQQNIEENMNIAIEEAPESFGQVTMLYINCKVNGHPLKAFVDSGAQMTIMSQACAERCNIMRLVDRRWAGVAKGVGTQRIIGRVHLAQIQIEGDFLQCSFSILEDQPMDMLLGLDMLRRHQCSIDLKKNVLVIGTTGTQTYFLPEGELPLCSRMVSGQDESSDKEITHSVMDSGRKEH [R87C]: the “effect of a mutation on the interaction” value was “with no effect”.

The values are drawn from IntAct's records for PubMed 31515488.
